Experimental data from the Human Domainome abundance scans (Beltran et al. 2025).
± gives the uncertainty stated by the source.

B1: Histidine--tRNA ligase, cytoplasmic, residues 8 to 45; numbered along this chain, P12081 (parent)
chain: EELVKLQGERVRGLKQQKASAELIEEEVAKLLKLKAQL

Variants of: B1
Test: abundance fitness (aPCA) (normalised: wild type 0, dead -1); higher = more abundant; growth selection in yeast, the domain comes from the species named
Settings: Homo sapiens

Abundance fitness, by site and new letter:
E27: R -0.741 ± 0.084, N -0.079 ± 0.078, W -1.11 ± 0.13, P -0.214 ± 0.091, H -0.436 ± 0.093, A -0.108 ± 0.089, K -0.649 ± 0.15, T -0.798 ± 0.085, M -0.874 ± 0.16, I -1.47 ± 0.15, S -0.291 ± 0.077, V -1.1 ± 0.093
L34: R -0.151 ± 0.097, V -0.064 ± 0.093, M 0.121 ± 0.12, H -0.06 ± 0.097, E 0.083 ± 0.084, Y -0.093 ± 0.093, C -0.197 ± 0.078, T -0.066 ± 0.091, Q 0.061 ± 0.11, A -0.054 ± 0.094, F -0.148 ± 0.095, G -0.128 ± 0.079, K -0.1 ± 0.094, W -0.237 ± 0.088, P 0.209 ± 0.089, I -0.176 ± 0.085, D 0.05 ± 0.12
K33: S 0.071 ± 0.074, Q 0.037 ± 0.1, L -0.34 ± 0.083, I -0.407 ± 0.14, C -0.451 ± 0.093, E 0.226 ± 0.13, H -0.039 ± 0.084, A -0.081 ± 0.11, Y -0.313 ± 0.1, T -0.093 ± 0.095, P -0.056 ± 0.097, G -0.147 ± 0.089, R -0.109 ± 0.075, F -0.338 ± 0.11, N -0.203 ± 0.26, V -0.436 ± 0.083
L31: I -0.426 ± 0.087, V -0.436 ± 0.073, G -0.044 ± 0.093, S 0.026 ± 0.076, D 0.222 ± 0.094, W -0.172 ± 0.093, A -0.084 ± 0.1, K 0.002 ± 0.098, Q 0.087 ± 0.12, M -0.338 ± 0.12, T -0.058 ± 0.093, R -0.126 ± 0.07, Y -0.199 ± 0.1, C -0.187 ± 0.097, H -0.144 ± 0.11, E 0.257 ± 0.09, N 0.22 ± 0.11, F -0.397 ± 0.084, P 0.123 ± 0.088
E26: I 0.086 ± 0.13, G -0.146 ± 0.11, V -0.116 ± 0.084, R 0.1 ± 0.08, C -0.024 ± 0.085, H 0.284 ± 0.12, L -0.046 ± 0.067, D -0.009 ± 0.096, W -0.594 ± 0.12, Q 0.139 ± 0.093, P -0.024 ± 0.084, K 0.184 ± 0.092, S 0.184 ± 0.074, M 0.168 ± 0.1, F -0.038 ± 0.083, A 0.263 ± 0.087
K35: N 0.597 ± 0.12, I -0.335 ± 0.096, H -0.532 ± 0.091, G 0.78 ± 0.098, S 0.611 ± 0.07, A 0.627 ± 0.1, W -0.936 ± 0.26, V 0.271 ± 0.086, R -0.005 ± 0.077, C 0.383 ± 0.09, F -0.893 ± 0.11, L -0.051 ± 0.073, T 0.392 ± 0.076, Q 0.414 ± 0.14, P 0.394 ± 0.087, Y -0.518 ± 0.098, E 0.193 ± 0.12, M 0.277 ± 0.11, D 0.227 ± 0.094
V28: C -0.076 ± 0.093, S 0.094 ± 0.08, K 0.107 ± 0.14, M 0.06 ± 0.1, L -0.271 ± 0.076, I -0.303 ± 0.09, T 0.159 ± 0.099, D 0.152 ± 0.11, R -0.027 ± 0.084, P -0.119 ± 0.1, F -0.378 ± 0.078, Q 0.366 ± 0.1, E 0.316 ± 0.13, H -0.012 ± 0.1, N 0.081 ± 0.098, A 0.177 ± 0.095, G -0.195 ± 0.11
Q37: V -0.173 ± 0.093, P 0.083 ± 0.077, T -0.113 ± 0.075, C -0.057 ± 0.12, R -0.143 ± 0.074, G 0.191 ± 0.089, Y -0.532 ± 0.1, M -0.02 ± 0.11, S 0.065 ± 0.076, I -0.29 ± 0.075, A 0.152 ± 0.089, E 0.28 ± 0.16, D 0.119 ± 0.12, F -0.693 ± 0.16, H -0.224 ± 0.097, N -0.04 ± 0.11, L -0.164 ± 0.072, K 0.041 ± 0.091
I24: M -0.03 ± 0.077, A -0.027 ± 0.078, Q 0.163 ± 0.09, S -0.171 ± 0.08, E -0.151 ± 0.15, T -0.012 ± 0.088, G -0.068 ± 0.085, H 0.169 ± 0.1, Y 0.131 ± 0.18, N -0.137 ± 0.1, R -0.184 ± 0.081, F 0.069 ± 0.091, W -1.01 ± 0.31, D 0.055 ± 0.14, K 0 ± 0.09, V -0.035 ± 0.078, L 0.03 ± 0.072
K30: Y -0.484 ± 0.11, N -0.119 ± 0.084, Q -0.102 ± 0.12, H -0.247 ± 0.097, F -0.722 ± 0.097, V -0.136 ± 0.094, L -0.211 ± 0.076, S -0.218 ± 0.069, E 0.1 ± 0.09, T -0.246 ± 0.078, G -0.364 ± 0.11, I -0.232 ± 0.098, P -0.219 ± 0.074, A -0.04 ± 0.081, D 0.072 ± 0.15, R -0.204 ± 0.079
